In patent US20090041784A1 (Amgen, published 2009):
Where two headings read alike, the source gives them in different places.

Tests used:
[1] = molecular target: T1, human glucagon receptor (human, UniProt P47871 26-477); assay: cell-based or functional assay
[2] = molecular target: T2, chimera-8 (amino acids 80-477 from human GCGR, remainder from human GLP-1 receptor) (human, UniProt P43220 24-83); assay: FMAT on cells expressing the chimeric receptor
T2 construct: Expressed on cells; not shown: in-frame C-terminal fluorescent protein, not identified

[3] = molecular target: T3, chimera-10 (amino acids 80-142 from human GCGR, remainder from human GLP-1 receptor) (human, UniProt P43220 24-83; P43220 146-463); assay: FMAT on cells expressing the chimeric receptor
T3 construct: Expressed on cells; not shown: in-frame C-terminal fluorescent protein, not identified

[4] = molecular target: T4, chimera-15 (amino acids 80-119 from human GCGR, remainder from human GLP-1 receptor) (human, UniProt P43220 24-83; P43220 125-463); assay: FMAT on cells expressing the chimeric receptor
T4 construct: Expressed on cells; not shown: in-frame C-terminal fluorescent protein, not identified

[5] = molecular target: T1, human glucagon receptor; assay: cell-based or functional assay; remark: listed apart in the source
[6] = molecular target: T5, cynomolgus glucagon receptor (cynomolgus (Macaca fascicularis), UniProt P47871 26-477 (human entry)); assay: cell-based or functional assay
T5 chain: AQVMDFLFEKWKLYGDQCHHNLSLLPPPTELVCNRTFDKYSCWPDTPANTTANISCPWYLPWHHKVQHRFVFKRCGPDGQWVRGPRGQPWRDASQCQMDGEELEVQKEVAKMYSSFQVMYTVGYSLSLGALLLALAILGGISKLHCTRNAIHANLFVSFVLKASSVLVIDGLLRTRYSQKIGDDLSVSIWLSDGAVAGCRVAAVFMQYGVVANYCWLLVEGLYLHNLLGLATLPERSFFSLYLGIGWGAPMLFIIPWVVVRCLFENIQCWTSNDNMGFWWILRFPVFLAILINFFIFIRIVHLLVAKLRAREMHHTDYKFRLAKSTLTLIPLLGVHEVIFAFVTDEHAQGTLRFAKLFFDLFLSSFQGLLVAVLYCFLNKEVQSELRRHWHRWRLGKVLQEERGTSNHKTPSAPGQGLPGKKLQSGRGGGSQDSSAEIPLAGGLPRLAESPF

[7] = molecular target: T6, mouse glucagon receptor (mouse (Mus musculus), UniProt Q61606 27-485); assay: cell-based or functional assay
[8] = molecular target: T7, rat glucagon receptor (rat (Rattus norvegicus), UniProt P30082 27-485); assay: cell-based or functional assay
[9] = molecular target: T1, human glucagon receptor; assay: Schild analysis of glucagon dose-response curves (cAMP HTRF) on CHO K1 cells expressing the receptor
[10] = molecular target: T5, cynomolgus glucagon receptor; assay: as above
[11] = molecular target: T6, mouse glucagon receptor; assay: as above
[12] = molecular target: T7, rat glucagon receptor; assay: as above

B1: antibody A-21 (antibody, V domains shown)
VH: EVRLVESGGDLVQPGGSLRLSCAASGFTFSSYAMNWVRQAPGKGLEWISYIGSSSSAIYYGDSVKGRFTISRDNAKNSLYLQMNSLRDEDTAVYYCARYRSGWSPLFDFWGQGSLVTVSS
VL: DIQMTQSPSSVSASVGDRVTITCRASQGISSWLAWYQQKPGKAPKLLIYAASSLQSGVPSRFSGSGSGTDFTLTISSLQPEDFATYYCQQANSFPLTFGGGTKVEIK
notes: Human antibody from XenoMouse hybridoma; also called L21H21
IC50 of inhibition of glucagon-induced cAMP production (HTRF, CHO K1 cells expressing the receptor) [1]: 47.2 nM
binding result [2]: no binding
binding result [3]: no binding
binding result [4]: no binding

B2: antibody A-3 (antibody, V domains shown)
VH: QVQLVESGGGVVQPGRSLRLSCAASGFTFSSYGMHWVRQAPGKGLEWVAVMWYDGSNKDYVDSVKGRFTISRDNSKNTLYLQMNRLRAEDTAVYYCAREKDHYDILTGYNYYYGLDVWGQGTTVTVSS
VL: DIQMTQSPSSLSASVGDRVTITCRASQGIRNDLGWYQQKPGKAPKRLIYAASSLQSGVPSRFSGSGSGTEFTLTISSVQPEDFVTYYCLQHNSNPLTFGGGTKVEIK
notes: Human antibody from XenoMouse hybridoma; also called L3H3; antibody 3
IC50 of inhibition of glucagon-induced cAMP production (HTRF, CHO K1 cells expressing the receptor) [5]: 9.1 nM
IC50 of inhibition of glucagon-induced cAMP production (HTRF, CHO K1 cells expressing the receptor) [6]: 22.5 nM
IC50 of inhibition of glucagon-induced cAMP production (HTRF, CHO K1 cells expressing the receptor) [7]: 4.9 nM
IC50 of inhibition of glucagon-induced cAMP production (HTRF, CHO K1 cells expressing the receptor) [8]: 13.5 nM
Kb (dissociation constant of antibody binding by Schild analysis) [9]: 1.6 nM
Kb (dissociation constant of antibody binding by Schild analysis) [10]: 5 nM
Kb (dissociation constant of antibody binding by Schild analysis) [11]: 0.5 nM
Kb (dissociation constant of antibody binding by Schild analysis) [12]: 3.2 nM

B3: antibody A-4 (antibody, V domains shown)
VH: QVQLVESGGGVVQPGRSLRLSCAASGFTFSSYGMHWVRQAPGKGLEWVAVMWYDGSNKDYVDSVKGRFTISRDNSKNTLYLQMNSLRAEDTAVYYCAREKDHYDILTGYNYYYGLDVWGQGTTVTVSS
VL: DIQMTQSPSSLSASVGDRVTITCRASQGIRNDLGWYQQKPGKAPKRLIYAASSLQSGVPSRFSGSGSGTEFTLTISSLQPEDFATYYCLQHNSNPLTFGGGTKVEIK
notes: Human antibody from XenoMouse hybridoma (IgG2 or IgG4 strains), purified from conditioned medium; also called L4H4; antibody 4
IC50 of inhibition of glucagon-induced cAMP production (HTRF, CHO K1 cells expressing the receptor) [5]: 18.1 nM
IC50 of inhibition of glucagon-induced cAMP production (HTRF, CHO K1 cells expressing the receptor) [6]: 52.1 nM
IC50 of inhibition of glucagon-induced cAMP production (HTRF, CHO K1 cells expressing the receptor) [7]: 10.1 nM
IC50 of inhibition of glucagon-induced cAMP production (HTRF, CHO K1 cells expressing the receptor) [8]: 17.2 nM
Kb (dissociation constant of antibody binding by Schild analysis) [9]: 1.76 nM
Kb (dissociation constant of antibody binding by Schild analysis) [10]: 5.7 nM
Kb (dissociation constant of antibody binding by Schild analysis) [11]: 0.88 nM
